# Measurements: the Human Domainome abundance scans (Beltran et al. 2025)
# ± gives the uncertainty stated by the source.
# B1: Tyrosine-protein kinase BTK, residues 215 to 273; numbered along this chain, Q06187 (parent)
# chain: ELKKVVALYDYMPMNANDLQLRKGDEYFILEESNLPWWRARDKNGQEGYIPSNYVTEAE
# B2: Zinc finger homeobox protein 4, residues 2183 to 2238; numbered along this chain, Q86UP3 (parent)
# chain: SSRTRFTDYQLRVLQDFFDTNAYPKDDEIEQLSTVLNLPTRVIVVWFQNARQKARK
# Variants of: B1
# Assay: abundance fitness (aPCA) (normalised: wild type 0, dead -1); higher = more abundant; growth selection in yeast, the domain comes from the species named
# Details: Homo sapiens
row,Variant,abundance fitness
1,R39P,-0.187 ± 0.073
2,M12W,-0.07 ± 0.039
3,E31H,-0.054 ± 0.062
4,G24V,-0.987 ± 0.056
5,T56Q,0.043 ± 0.067
6,Y27H,-0.754 ± 0.12
7,Q46I,0.047 ± 0.061
8,R22S,-0.003 ± 0.035
9,L19R,-0.792 ± 0.042
10,A40F,-0.892 ± 0.1
11,L35F,0.012 ± 0.058
12,Q20A,-0.007 ± 0.04
13,G45H,-0.118 ± 0.12
14,S33H,-0.087 ± 0.068
15,A16D,0.044 ± 0.051
16,K43M,0.021 ± 0.056
17,D18P,-0.469 ± 0.051
18,A16M,-0.141 ± 0.042
19,K23M,-0.169 ± 0.046
20,L30D,-0.397 ± 0.12
21,A7G,-0.364 ± 0.032
22,Y54H,-0.009 ± 0.066
23,I50L,-0.043 ± 0.035
24,K4M,-0.133 ± 0.061

row,Variant,abundance fitness
1,I50Q,-1.2 ± 0.18
2,N34T,0.029 ± 0.054
3,N44E,-0.009 ± 0.061
4,L21K,-0.892 ± 0.12
5,K4C,-0.225 ± 0.072
6,K23G,-0.143 ± 0.034
7,E1I,-0.106 ± 0.46
8,V6G,-0.636 ± 0.03
9,E59Q,-0.015 ± 0.1
10,M14K,-0.007 ± 0.059
11,N44L,-0.023 ± 0.042
12,G24I,-0.799 ± 0.11
13,N17I,-0.187 ± 0.075
14,S52M,0.019 ± 0.07
15,E31I,-0.117 ± 0.054
16,A7L,-1 ± 0.047
17,I29T,-0.212 ± 0.056
18,P51Y,-0.04 ± 0.14
19,M12E,0.017 ± 0.049
20,E59C,-0.061 ± 0.073
21,N15H,-0.048 ± 0.069
22,Y27W,-0.96 ± 0.08
23,Y54P,-0.93 ± 0.099
24,A40H,-0.674 ± 0.14

row,Variant,abundance fitness
1,Y11V,-0.298 ± 0.042
2,L8C,-0.04 ± 0.041
3,W37E,0.011 ± 0.054
4,E47F,-0.235 ± 0.055
5,D10G,-0.168 ± 0.2
6,L21Y,-1.09 ± 0.12
7,K4H,-0.322 ± 0.09
8,V6T,-0.017 ± 0.029
9,A7F,-0.599 ± 0.1
10,G24W,-0.34 ± 0.057
11,A40W,-1.02 ± 0.087
12,L21Q,-0.754 ± 0.09
13,Y11P,-0.704 ± 0.063
14,P13Q,-0.296 ± 0.076
15,T56L,-0.086 ± 0.031
16,G45W,-0.224 ± 0.036
17,N53K,-0.025 ± 0.052
18,Y9C,0.006 ± 0.05
19,Y9V,0.031 ± 0.028
20,D18L,-0.073 ± 0.032
21,E57M,-0.022 ± 0.056
22,A7T,-0.801 ± 0.056
23,F28A,-0.055 ± 0.041
24,G24Y,-0.193 ± 0.062

row,Variant,abundance fitness
1,R22K,0.049 ± 0.047
2,E47W,-0.104 ± 0.044
3,A40D,-0.952 ± 0.17
4,K4T,-0.036 ± 0.046
5,T56N,-0.094 ± 0.087
6,D25H,-0.01 ± 0.048
7,S52I,-0.053 ± 0.066
8,Y49L,0.003 ± 0.033
9,T56P,-0.733 ± 0.07
10,Y49C,-0.024 ± 0.053
11,E31P,-0.162 ± 0.049
12,G45E,-0.156 ± 0.045
13,A7W,-1.03 ± 0.071
14,P51G,-0.286 ± 0.034
15,N34L,0.033 ± 0.036
16,Y49D,-0.032 ± 0.065
17,W38V,0.022 ± 0.035
18,F28S,-0.019 ± 0.039
19,L35P,0 ± 0.057
20,W38F,-0.031 ± 0.043
21,P13S,-0.081 ± 0.041
22,E57H,0.023 ± 0.071
23,L19I,-0.124 ± 0.067
24,L21F,-1.01 ± 0.12

row,Variant,abundance fitness
1,V6L,-0.052 ± 0.027
2,P36K,0.011 ± 0.072
3,Y27R,-0.772 ± 0.05
4,A7Q,-0.828 ± 0.059
5,L35D,0.05 ± 0.084
6,Y27A,-0.339 ± 0.049
7,I50H,-0.592 ± 0.17
8,Y27V,-0.022 ± 0.04
9,P13C,-0.235 ± 0.056
10,M14R,0.051 ± 0.035
11,L19Y,-0.66 ± 0.059
12,Q46H,0.04 ± 0.069
13,Q20P,-0.037 ± 0.044
14,W37D,-0.129 ± 0.056
15,Y54D,-0.562 ± 0.094
16,N34Y,-0.102 ± 0.063
17,Y9S,0.053 ± 0.031
18,R41F,-0.142 ± 0.064
19,P51C,-0.126 ± 0.059
20,P13I,-0.193 ± 0.16
21,V6F,-0.073 ± 0.031
22,N44M,-0.061 ± 0.095
23,V5M,-0.134 ± 0.041
24,N53R,-0.03 ± 0.04

row,Variant,abundance fitness
1,M12K,0.065 ± 0.051
2,G45D,-0.057 ± 0.065
3,E32K,-0.133 ± 0.08
4,M14I,-0.049 ± 0.049
5,E57T,-0.006 ± 0.051
6,G24D,-0.09 ± 0.052
7,R22H,-0.08 ± 0.058
8,R22P,-0.768 ± 0.086
9,E26H,-0.134 ± 0.099
10,A16K,-0.068 ± 0.044
11,P13Y,-0.774 ± 0.1
12,V6Q,-0.025 ± 0.038
13,D42N,-0.081 ± 0.071
14,V6P,-0.796 ± 0.049
15,K43R,-0.033 ± 0.033
16,A40T,-0.456 ± 0.057
17,F28C,-0.096 ± 0.055
18,L35K,-0.039 ± 0.047
19,L8V,-0.055 ± 0.029
20,L19F,-0.391 ± 0.067

# Variants of: B2
# Assay: as above
# Details: Homo sapiens
row,Variant,abundance fitness
1,S1A,0.062 ± 0.2
2,S1C,0.092 ± 0.18
3,S1F,0.106 ± 0.2
4,S1G,0.276 ± 0.15
5,S1I,-0.026 ± 0.34
6,S1M,0.045 ± 0.28
7,S1P,-0.575 ± 0.29
8,S1T,-0.009 ± 0.16
9,S1W,-1.16 ± 0.35
10,S1Y,-0.241 ± 0.17
11,S2A,-0.407 ± 0.094
12,S2C,0.197 ± 0.096
13,S2D,0.254 ± 0.11
14,S2E,0.195 ± 0.11
15,S2F,-0.229 ± 0.14
16,S2G,-0.004 ± 0.077
17,S2H,-0.106 ± 0.16
18,S2I,-0.059 ± 0.13
19,S2K,0.053 ± 0.19
20,S2L,-0.144 ± 0.098
21,S2M,0.102 ± 0.17
22,S2N,0.125 ± 0.15
23,S2P,-0.012 ± 0.12
24,S2Q,0.262 ± 0.16
25,S2R,-0.106 ± 0.091
26,S2T,0.151 ± 0.13
27,S2V,-0.043 ± 0.087
